From PMC10397247

How the values were obtained:
Assay in all cases: two-hybrid library CCmax;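 also: natural log of median RNA to DNA barcode read ratio; higher means stronger binding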
4H745-AA = target: T1, 4H745-AA; conditions: mean of both orientations
T1 chain: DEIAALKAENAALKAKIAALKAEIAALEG

4H2109-AA = target: T2, 4H2109-AA
T2 chain: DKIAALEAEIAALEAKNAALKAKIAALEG

4H710-AA = target: T3, 4H710-AA; conditions: mean of both orientations
T3 chain: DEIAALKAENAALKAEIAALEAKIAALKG

4H3697-AA = target: T4, 4H3697-AA; conditions: mean of both orientations
T4 chain: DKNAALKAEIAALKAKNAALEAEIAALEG

4H909-AA = target: T5, 4H909-AA; conditions: mean of both orientations
T5 chain: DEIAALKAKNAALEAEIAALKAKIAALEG

4H94-AA = target: T6, 4H94-AA; conditions: mean of both orientations
T6 chain: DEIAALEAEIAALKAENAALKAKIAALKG

4H3590-AA = target: T7, 4H3590-AA; conditions: mean of both orientations
T7 chain: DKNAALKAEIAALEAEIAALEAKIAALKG

4H3009-AA = target: T8, 4H3009-AA; conditions: mean of both orientations
T8 chain: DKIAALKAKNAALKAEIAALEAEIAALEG

4H485-AA = target: T9, 4H485-AA; conditions: mean of both orientations
T9 chain: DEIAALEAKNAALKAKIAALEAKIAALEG

4H2698-AA = target: T10, 4H2698-AA; conditions: mean of both orientations
T10 chain: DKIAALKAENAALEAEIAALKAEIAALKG

4H2162-AA = target: T11, 4H2162-AA; conditions: mean of both orientations
T11 chain: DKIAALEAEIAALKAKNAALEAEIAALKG

4H3410-AA = target: T12, 4H3410-AA; conditions: mean of both orientations
T12 chain: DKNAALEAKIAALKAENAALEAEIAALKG

4H3130-AA = target: T13, 4H3130-AA; conditions: mean of both orientations
T13 chain: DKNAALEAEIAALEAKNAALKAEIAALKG

4H2274-AA = target: T14, 4H2274-AA; conditions: mean of both orientations
T14 chain: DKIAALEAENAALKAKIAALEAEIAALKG

4H2725-AA = target: T15, 4H2725-AA; conditions: mean of both orientations
T15 chain: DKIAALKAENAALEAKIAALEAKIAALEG

4H797-AA = target: T16, 4H797-AA; conditions: mean of both orientations
T16 chain: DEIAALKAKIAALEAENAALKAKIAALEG

4H3016-AA = target: T17, 4H3016-AA; conditions: mean of both orientations
T17 chain: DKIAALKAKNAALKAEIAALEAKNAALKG

4H2865-AA = target: T18, 4H2865-AA; conditions: mean of both orientations
T18 chain: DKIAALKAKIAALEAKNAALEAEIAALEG

4H930-AA = target: T19, 4H930-AA; conditions: mean of both orientations
T19 chain: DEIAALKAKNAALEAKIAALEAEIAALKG

4H3865-AA = target: T20, 4H3865-AA
T20 chain: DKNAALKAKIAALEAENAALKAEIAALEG

4H3753-AA = target: T21, 4H3753-AA; conditions: mean of both orientations
T21 chain: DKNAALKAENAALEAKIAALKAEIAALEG

4H3395-AA = target: T22, 4H3395-AA; conditions: mean of both orientations
T22 chain: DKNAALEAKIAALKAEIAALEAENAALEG

4H2253-AA = target: T23, 4H2253-AA; conditions: mean of both orientations
T23 chain: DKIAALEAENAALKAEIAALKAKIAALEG

4H2438-AA = target: T24, 4H2438-AA; conditions: mean of both orientations
T24 chain: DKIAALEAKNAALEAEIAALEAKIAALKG

4H2649-AA = target: T25, 4H2649-AA; conditions: mean of both orientations
T25 chain: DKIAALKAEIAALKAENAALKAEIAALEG

4H629-AA = target: T26, 4H629-AA; conditions: mean of both orientations
T26 chain: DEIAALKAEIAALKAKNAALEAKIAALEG

4H536-AA = target: T27, 4H536-AA; conditions: mean of both orientations
T27 chain: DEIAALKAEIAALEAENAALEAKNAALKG

4H570-AA = target: T28, 4H570-AA; conditions: mean of both orientations
T28 chain: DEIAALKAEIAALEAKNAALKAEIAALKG

4H3165-AA = target: T29, 4H3165-AA; conditions: mean of both orientations
T29 chain: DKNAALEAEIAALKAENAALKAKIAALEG

4H891-AA = target: T30, 4H891-AA; conditions: mean of both orientations
T30 chain: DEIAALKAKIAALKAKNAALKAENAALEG

4H2330-AA = target: T31, 4H2330-AA; conditions: mean of both orientations
T31 chain: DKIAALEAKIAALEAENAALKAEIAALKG

4H2389-AA = target: T32, 4H2389-AA; conditions: mean of both orientations
T32 chain: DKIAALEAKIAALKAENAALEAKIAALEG

4H458-AA = target: T33, 4H458-AA; conditions: mean of both orientations
T33 chain: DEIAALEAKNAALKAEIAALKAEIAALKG

4H2473-AA = target: T34, 4H2473-AA; conditions: mean of both orientations
T34 chain: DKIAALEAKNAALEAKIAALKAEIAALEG

4H310-AA = target: T35, 4H310-AA; conditions: mean of both orientations
T35 chain: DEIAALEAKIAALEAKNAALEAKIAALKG

4H850-AA = target: T36, 4H850-AA; conditions: mean of both orientations
T36 chain: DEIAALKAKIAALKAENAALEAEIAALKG

4H3381-AA = target: T37, 4H3381-AA; conditions: mean of both orientations
T37 chain: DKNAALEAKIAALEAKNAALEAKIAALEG

4H3120-AA = target: T38, 4H3120-AA; conditions: mean of both orientations
T38 chain: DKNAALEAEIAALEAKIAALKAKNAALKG

APC3354-AA = target: T39, APC3354-AA; conditions: mean of both orientations
T39 chain: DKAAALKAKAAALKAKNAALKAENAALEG

APC9291-AA = target: T40, APC9291-AA; conditions: mean of both orientations
T40 chain: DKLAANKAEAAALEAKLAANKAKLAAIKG

APC3881-AA = target: T41, APC3881-AA; conditions: mean of both orientations
T41 chain: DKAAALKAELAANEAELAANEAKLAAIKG

APC4100-AA = target: T42, APC4100-AA; conditions: mean of both orientations
T42 chain: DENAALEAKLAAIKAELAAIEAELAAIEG

APC9806-AA = target: T43, APC9806-AA; conditions: mean of both orientations
T43 chain: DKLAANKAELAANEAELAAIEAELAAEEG

APC9141-AA = target: T44, APC9141-AA; conditions: mean of both orientations
T44 chain: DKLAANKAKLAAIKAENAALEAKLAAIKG

APC3265-AA = target: T45, APC3265-AA; conditions: mean of both orientations
T45 chain: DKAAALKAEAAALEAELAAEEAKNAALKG

APC3323-AA = target: T46, APC3323-AA; conditions: mean of both orientations
T46 chain: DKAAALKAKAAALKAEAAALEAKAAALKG

APC8401-AA = target: T47, APC8401-AA; conditions: mean of both orientations
T47 chain: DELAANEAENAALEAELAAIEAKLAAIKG

APC8516-AA = target: T48, APC8516-AA; conditions: mean of both orientations
T48 chain: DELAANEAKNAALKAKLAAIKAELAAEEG

APC4336-AA = target: T49, APC4336-AA; conditions: mean of both orientations
T49 chain: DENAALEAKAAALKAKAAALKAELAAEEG

APC5009-AA = target: T50, APC5009-AA; conditions: mean of both orientations
T50 chain: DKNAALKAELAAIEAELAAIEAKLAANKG

APC7524-AA = target: T51, APC7524-AA; conditions: mean of both orientations
T51 chain: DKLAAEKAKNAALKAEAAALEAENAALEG

APC542-AA = target: T52, APC542-AA; conditions: mean of both orientations
T52 chain: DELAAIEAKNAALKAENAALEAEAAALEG

APC6088-AA = target: T53, APC6088-AA; conditions: mean of both orientations
T53 chain: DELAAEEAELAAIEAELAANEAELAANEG

APC9182-AA = target: T54, APC9182-AA; conditions: mean of both orientations
T54 chain: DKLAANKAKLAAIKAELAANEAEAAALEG

APC5531-AA = target: T55, APC5531-AA; conditions: mean of both orientations
T55 chain: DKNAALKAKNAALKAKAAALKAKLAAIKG

APC2981-AA = target: T56, APC2981-AA
T56 chain: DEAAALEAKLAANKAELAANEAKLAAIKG

B1: 4H2109-AA (peptide)
chain: DKIAALEAEIAALEAKNAALKAKIAALEG
With B1 as the binder, how does the interaction score (4H745-AA) read?
Its interaction score is -0.947.

What about the interaction score (4H2109-AA) of the same binder?
The interaction score was 1.67.

What about the interaction score (4H710-AA) of the same binder?
Its interaction score is -1.26.

And the interaction score (4H3697-AA)?
The interaction score was -0.415.

And the interaction score (4H909-AA)?
Its interaction score is -0.525.

What about the interaction score (4H94-AA) of the same binder?
The interaction score was 1.43.

What about the interaction score (4H3590-AA) of the same binder?
The interaction score was 1.21.

And the interaction score (4H3009-AA)?
The interaction score was -0.233.

What about the interaction score (4H485-AA) of the same binder?
The interaction score was -0.723.

And the interaction score (4H2698-AA)?
The interaction score was 1.53.

What about the interaction score (4H2162-AA) of the same binder?
The interaction score was 0.55.

What about the interaction score (4H3410-AA) of the same binder?
Its interaction score is 1.87.

What about the interaction score (4H3130-AA) of the same binder?
Its interaction score is -1.05.

And the interaction score (4H2274-AA)?
The interaction score was -1.47.

What about the interaction score (4H2725-AA) of the same binder?
The interaction score was 0.465.

And the interaction score (4H797-AA)?
The interaction score was 1.44.

And the interaction score (4H3016-AA)?
Its interaction score is -1.16.

And the interaction score (4H2865-AA)?
Its interaction score is 2.17.

What about the interaction score (4H930-AA) of the same binder?
Its interaction score is -0.719.

What about the interaction score (4H3865-AA) of the same binder?
The interaction score was -0.488.

And the interaction score (4H3753-AA)?
Its interaction score is 0.644.

And the interaction score (4H3395-AA)?
The interaction score was -0.63.

What about the interaction score (4H2253-AA) of the same binder?
Its interaction score is -1.76.

And the interaction score (4H2438-AA)?
The interaction score was -0.365.

And the interaction score (4H2649-AA)?
The interaction score was 1.26.

What about the interaction score (4H629-AA) of the same binder?
The interaction score was 1.09.

And the interaction score (4H536-AA)?
Its interaction score is 0.839.

And the interaction score (4H570-AA)?
The interaction score was -0.239.

What about the interaction score (4H3165-AA) of the same binder?
The interaction score was -0.391.

What about the interaction score (4H891-AA) of the same binder?
Its interaction score is -1.3.

And the interaction score (4H2330-AA)?
The interaction score was 0.0427.

And the interaction score (4H2389-AA)?
The interaction score was 2.49.

And the interaction score (4H458-AA)?
Its interaction score is -1.45.

And the interaction score (4H2473-AA)?
Its interaction score is -0.356.

What about the interaction score (4H310-AA) of the same binder?
The interaction score was 1.94.

And the interaction score (4H850-AA)?
Its interaction score is 2.07.

And the interaction score (4H3381-AA)?
The interaction score was -0.283.

What about the interaction score (4H3120-AA) of the same binder?
Its interaction score is -0.474.

B2: APC2981-AA (peptide)
chain: DEAAALEAKLAANKAELAANEAKLAAIKG
With B2 as the binder, how does the interaction score (APC3354-AA) read?
The interaction score was -2.3.

What about the interaction score (APC9291-AA) of the same binder?
Its interaction score is -1.74.

What about the interaction score (APC3881-AA) of the same binder?
Its interaction score is -1.67.

What about the interaction score (APC4100-AA) of the same binder?
The interaction score was -1.62.

And the interaction score (APC9806-AA)?
The interaction score was -1.51.

What about the interaction score (APC9141-AA) of the same binder?
The interaction score was -1.53.

And the interaction score (APC3265-AA)?
The interaction score was -1.62.

And the interaction score (APC3323-AA)?
Its interaction score is -1.68.

What about the interaction score (APC8401-AA) of the same binder?
The interaction score was -1.71.

What about the interaction score (APC8516-AA) of the same binder?
The interaction score was -1.73.

And the interaction score (APC4336-AA)?
The interaction score was -2.05.

What about the interaction score (APC5009-AA) of the same binder?
The interaction score was -1.75.

What about the interaction score (APC7524-AA) of the same binder?
Its interaction score is -1.71.

What about the interaction score (APC542-AA) of the same binder?
Its interaction score is -1.62.

What about the interaction score (APC6088-AA) of the same binder?
Its interaction score is -1.49.

What about the interaction score (APC9182-AA) of the same binder?
The interaction score was -1.76.

What about the interaction score (APC5531-AA) of the same binder?
The interaction score was -1.79.

And the interaction score (APC2981-AA)?
Its interaction score is -1.58.
